This note sets out measurements from the supplement of paper PMC10598134.

A short description of the data set: collision cross section of modified peptide (TIMS, N2, iRT-aligned); higher = larger / more extended gas-phase ion. A digest of the protocol:
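Synthetic peptide pools (~100 fmol/µL in 2% acetonitrile/0.1% formic acid, iRT standard spiked 1:40) were separated on a 120-min nanoflow C18 gradient at 60 °C. They were analysed on a timsTOF Pro/HT (dda-PASEF, nitrogen, ~2.4 mbar) and identified with MaxQuant. 1/K0 was calibrated with three reference ions and aligned run-wise to the median iRT peptide deviation. Collision cross section came from the Mason-Schamp equation, averaging 1–3 technical replicates of the most abundant feature per charge state.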

The mark [1] stands for this setting: charge state: 2, modification: GlyGly (K).
Setting [2] is: charge state: 3, modification: GlyGly (K).
[3] abbreviates: charge state: 2, modification: hydroxyisobutyryl.
The mark [4] stands for this setting: charge state: 3, modification: hydroxyisobutyryl.
[5] abbreviates: charge state: 2, modification: Butyryl.
Setting [6] is: charge state: 3, modification: Butyryl.
[7] abbreviates: charge state: 2, modification: Trimethyl (K).
The mark [8] stands for this setting: charge state: 3, modification: Trimethyl (K).
Setting [9] is: charge state: 3, modification: Formyl.
Where [10] appears, read: charge state: 2, modification: Glutarylation.
The mark [11] stands for this setting: charge state: 2, modification: Dimethyl (K).
[12] abbreviates: charge state: 3, modification: Dimethyl (K).
The mark [13] stands for this setting: charge state: 2, modification: HexNAc (ST).
[14] abbreviates: charge state: 3, modification: HexNAc (ST).
Where [15] appears, read: charge state: 3, modification: Glutarylation.
[16] abbreviates: charge state: 2, modification: Citrullination (R).
[17] abbreviates: charge state: 3, modification: Citrullination (R).
[18] abbreviates: charge state: 2, modification: Methyl (K).
The mark [19] stands for this setting: charge state: 3, modification: Methyl (K).
The mark [20] stands for this setting: charge state: 2, modification: Malonyl.
[21] abbreviates: charge state: 2, modification: Acetyl (K).

± gives the standard deviation.

For ILDLKTGTVK [_ILDLK(GlyGly (K))TGTVK_], the collision cross section reads like this: under setting [1], 373.1 ± 0.25 Å²; under setting [2], 439.15 ± 0.43 Å².
“IISSIEQKEENK [_IISSIEQK(hydroxyisobutyryl)EENK_]”: the collision cross section reads like this: under setting [3], 408.38 ± 0.3 Å²; under setting [4], 478.99 ± 4 Å².
As to “ANEKTESSSAQQVAVSR [_ANEK(Butyryl)TESSSAQQVAVSR_]”, the collision cross section reads like this: under setting [5], 441.41 ± 1.7 Å²; under setting [6], 534.65 ± 3.5 Å².
Regarding “ATVASSTQKFQDLGVK [_ATVASSTQK(Trimethyl (K))FQDLGVK_]”, the collision cross section under setting [7] worked out at 475.64 ± 1.1 Å² and the collision cross section under setting [8] was 477.04 ± 1.8 Å².
In turn, GSLEKGSPEDK [_GSLEK(Succinyl)GSPEDK_] gave a collision cross section (charge state: 2, modification: Succinyl) of 366.43 ± 0.51 Å².
Turning to “HELQANCYEEVKDR [_HELQANCYEEVK(Formyl)DR_]”, the collision cross section under setting [9] is 490.46 Å².
Consider LAEEENKAK [_LAEEENK(Gluratylation)AK_], for which the collision cross section under setting [10] was 353.09 ± 0.078 Å².
Sequence “VNVEAPDVNLEGLGGKLK [_VNVEAPDVNLEGLGGK(GlyGly (K))LK_]” registered a collision cross section under setting [1] of 470.77 ± 1.4 Å² and a collision cross section under setting [2] of 551.19 ± 1.1 Å².
For the sequence “DLSTVEALQNLKNLK [_DLSTVEALQNLK(hydroxyisobutyryl)NLK_]”, the collision cross section runs as follows: under setting [3], 486.36 ± 1.3 Å²; under setting [4], 549.84 ± 1.8 Å².
In the case of “SLEEEGAAHSGKR [_SLEEEGAAHSGK(Dimethyl (K))R_]”, the collision cross section reads like this: under setting [11], 412.8 ± 3 Å²; under setting [12], 453.89 ± 1.2 Å².
LDHLAEKFR [_LDHLAEK(Trimethyl (K))FR_] gave a collision cross section under setting [8] of 436.32 ± 0.025 Å².
As for “IQQELQTAKK [_IQQELQTAK(hydroxyisobutyryl)K_]”, under setting [3], the collision cross section stood at 386.63 ± 0.81 Å².
As for “VFIGNLNTLVVKK [_VFIGNLNTLVVK(Butyryl)K_]”, the collision cross section under setting [5] is given as 414.54 ± 0.53 Å² and the collision cross section under setting [6] was 490.12 Å².
“EVVKPVPITSPAVSK [_EVVKPVPIT(HexNAc (ST))SPAVSK_]”: the collision cross section came to 445.83 ± 0.56 Å² under setting [13] and 512.07 ± 2.8 Å² under setting [14].
In the case of “IQTKAGEATVK [_IQTK(hydroxyisobutyryl)AGEATVK_]”, under setting [3], the collision cross section was 374.42 ± 0.28 Å².
“GSLGAQKLANTCFNEIEK [_GSLGAQK(GlyGly (K))LANTCFNEIEK_]”: the collision cross section runs as follows: under setting [1], 500.39 ± 1.8 Å²; under setting [2], 528.63 ± 18 Å².
“DLSTVEALQNLKNLK [_DLSTVEALQNLK(Gluratylation)NLK_]” had a collision cross section under setting [15] of 545.2 Å².
In the case of “KYEEIDNAPEER [_K(hydroxyisobutyryl)YEEIDNAPEER_]”, the collision cross section runs as follows: under setting [3], 416.12 ± 0.31 Å²; under setting [4], 497.05 ± 3.9 Å².
For the sequence “DAEAAEATAEGALKAEK [_DAEAAEATAEGALK(Formyl)AEK_]”, the collision cross section is, setting by setting: (charge state: 2, modification: Formyl) 428.82 ± 0.71 Å²; under setting [9], 534.4 ± 0.57 Å².
Turning to ISALQGKLSK [_ISALQGK(Dimethyl (K))LSK_], the collision cross section is, setting by setting: under setting [11], 355.29 ± 0.29 Å²; under setting [12], 425.26 ± 1.1 Å².
“SLGEPAAGEGSAKR [_SLGEPAAGEGSAK(Crotonyl)R_]”: the collision cross section reads like this: (charge state: 2, modification: Crotonyl) 387.18 ± 0.89 Å²; (charge state: 3, modification: Crotonyl) 487.34 ± 1.3 Å².
“ASNAAVKLAESK [_ASNAAVK(Dimethyl (K))LAESK_]”: the collision cross section was 387.86 ± 0.56 Å² under setting [11] and 452.98 ± 1.6 Å² under setting [12].
For “FSAYIKNSNPALNDNLEK [_FSAYIK(Gluratylation)NSNPALNDNLEK_]”, the collision cross section runs as follows: under setting [10], 487.96 ± 2 Å²; under setting [15], 547.09 ± 1.3 Å².
“GARLPGPVSSAR [_GAR(Citrullination (R))LPGPVSSAR_]”: the collision cross section was 355.27 ± 6 Å² under setting [16] and 446.63 Å² under setting [17].
With “GGGGGGGGGAPRGR [_GGGGGGGGGAPR(Methyl (R))GR_]”, the collision cross section is, setting by setting: (charge state: 2, modification: Methyl (R)) 346.08 ± 2.1 Å²; (charge state: 3, modification: Methyl (R)) 427.42 ± 3.8 Å².
In the case of LAEEENKAK [_LAEEENK(Trimethyl (K))AK_], the collision cross section reads like this: under setting [7], 353.67 ± 0.62 Å²; under setting [8], 413.12 Å².
Sequence “GSLGAQKLANTCFNEIEK [_GSLGAQK(hydroxyisobutyryl)LANTCFNEIEK_]” displayed a collision cross section under setting [3] of 476.97 ± 0.8 Å².
Consider “PGGLGSSSLYGLGASRPR [_PGGLGSSSLYGLGASR(Citrullination (R))PR_]”, for which the collision cross section is, setting by setting: under setting [16], 438.36 ± 0.2 Å²; under setting [17], 521.04 ± 1.9 Å².
“VNIGQGSHPQKVK [_VNIGQGSHPQK(Gluratylation)VK_]”: the collision cross section reads like this: under setting [10], 424.75 ± 1.8 Å²; under setting [15], 494.72 ± 8.3 Å².
Sequence “SAGSVESPSVSSTHR [_SAGSVESPSVS(HexNAc (ST))STHR_]” showed a collision cross section under setting [13] of 412.88 ± 0.14 Å².
As to “ASEALLKQLK [_ASEALLK(hydroxyisobutyryl)QLK_]”, the collision cross section under setting [3] worked out at 382.21 ± 0.28 Å².
As to “LTSLNVKYNNDK [_LTSLNVK(Methyl (K))YNNDK_]”, the collision cross section is, setting by setting: under setting [18], 408.99 ± 1.4 Å²; under setting [19], 486.12 ± 3.3 Å².
On to “VLTANSNPSSPSAAKR [_VLTANSNPSSPSAAK(Malonyl)R_]”, for which the collision cross section runs as follows: under setting [20], 426.78 ± 1.6 Å²; (charge state: 3, modification: Malonyl) 452.99 Å².
Under setting [21], LEQVEKELLR [_LEQVEK(Acetyl (K))ELLR_] showed a collision cross section of 385.81 ± 0.48 Å².
“EPFSGDHSADGFEVTSR [_EPFS(HexNAc (ST))GDHSADGFEVTSR_]” gave a collision cross section under setting [14] of 513.98 ± 1.8 Å².
Consider “SKLLFSNTAAQK [_SK(Trimethyl (K))LLFSNTAAQK_]”, for which the collision cross section under setting [7] came to 395.61 ± 0.017 Å² and the collision cross section under setting [8] worked out at 446.07 ± 2.4 Å².
“FLQEFYQDDELGKK [_FLQEFYQDDELGK(Malonyl)K_]” had a collision cross section under setting [20] of 451.48 ± 0.99 Å².
On to VLSIGDGIAR [_VLS(HexNAc (ST))IGDGIAR_], for which the collision cross section under setting [13] came out at 372.66 ± 0.12 Å².
Sequence “SKHLQEQLNELK [_SK(Gluratylation)HLQEQLNELK_]” had a collision cross section under setting [10] of 423.49 ± 0.97 Å² and a collision cross section under setting [15] of 496.16 ± 2 Å².
As to “FDDTNPEKEEAK [_FDDTNPEK(Trimethyl (K))EEAK_]”, the collision cross section amounted to 399.27 ± 1.6 Å² under setting [7] and 487.6 ± 1.9 Å² under setting [8].
“FGSRGGPGGGFR [_FGSR(Citrullination (R))GGPGGGFR_]” yielded a collision cross section under setting [16] of 349.6 ± 0.64 Å².
The sequence “SAGSVESPSVSSTHR [_SAGSVESPSVSST(HexNAc (ST))HR_]” returned a collision cross section under setting [14] of 473.17 ± 1.2 Å².
“IDLPAENSNSETIIITGKR [_IDLPAENSNSETIIITGK(Trimethyl (K))R_]”: the collision cross section under setting [8] is listed as 576.62 Å².
In turn, “LLIVSTTPYSEKDTK [_LLIVSTTPYSEK(Propionyl)DTK_]” had a collision cross section (charge state: 2, modification: Propionyl) of 452.01 Å².
Under setting [9], DSINFLDHINGKK [_DSINFLDHINGK(Formyl)K_] yielded a collision cross section of 468.04 Å².
For “RLPNVHGR [_R(Citrullination (R))LPNVHGR_]”, the collision cross section reads like this: under setting [16], 340.93 ± 1.6 Å²; under setting [17], 417.11 ± 3.5 Å².
In the case of “PGPKGEAGPTGPQGEPGVR [_P(Hydroxyproline)GPKGEAGPTGPQGEPGVR_]”, the collision cross section runs as follows: (charge state: 2, modification: Hydroxyproline) 432.55 ± 0.34 Å²; (charge state: 3, modification: Hydroxyproline) 487.03 ± 3.2 Å².
In turn, LDEKENLSAK [_LDEK(GlyGly (K))ENLSAK_] registered a collision cross section under setting [1] of 379.07 ± 1.5 Å² and a collision cross section under setting [2] of 437.31 ± 1.9 Å².
Under setting [21], “AGPNASIISLKSDK [_AGPNASIISLK(Acetyl (K))SDK_]” gave a collision cross section of 408.51 ± 3 Å².
With “VDIDAPDVSIEGPDAKLK [_VDIDAPDVSIEGPDAK(hydroxyisobutyryl)LK_]”, the collision cross section under setting [3] was 475 ± 0.81 Å².
Consider GVQYLNEIK [_GVQY(Nitro (Y))LNEIK_], for which the collision cross section (charge state: 2, modification: Nitro (Y)) was 353.34 ± 0.19 Å².
Consider “ASDTSSETVFGKR [_ASDTSSETVFGK(Acetyl (K))R_]”, for which the collision cross section by setting is: under setting [21], 397.17 ± 0.32 Å²; (charge state: 3, modification: Acetyl (K)) 476.65 ± 0.87 Å².
As to “IINEPTAAAIAYGLDKK [_IINEPTAAAIAYGLDK(Gluratylation)K_]”, the collision cross section under setting [10] was 470.31 ± 1.8 Å² and the collision cross section under setting [15] came to 565.52 ± 1.3 Å².
Regarding “SLGEPAAGEGSAKR [_SLGEPAAGEGSAK(Biotin)R_]”, the collision cross section (charge state: 2, modification: Biotin) is 403.03 Å².
The sequence “DLGKFQVATDALK [_DLGK(Acetyl (K))FQVATDALK_]” came in with a collision cross section under setting [21] of 405.65 ± 0.97 Å².
As to “GTVPDDAVEALADSLGKK [_GTVPDDAVEALADSLGK(Methyl (K))K_]”, the collision cross section runs as follows: under setting [18], 482.51 ± 3.5 Å²; under setting [19], 524.02 ± 2.6 Å².
